What is called IC50 is the concentration that gives 50% inhibition.

Common to all, as to assay: 125I-PP displacement
Experiment [1] addresses T1, human Y4 receptor (human, UniProt P50391 1-375).
For experiment [2], the target named is T1, human Y4 receptor. This is another data set of the same source.
Experiment [3] concerns the target T1, human Y4 receptor. This is another data set of the same source.

Like-named read-outs stand apart in the source and are kept apart here. No end group written: not given here.

T1 sequence (P50391 whole entry): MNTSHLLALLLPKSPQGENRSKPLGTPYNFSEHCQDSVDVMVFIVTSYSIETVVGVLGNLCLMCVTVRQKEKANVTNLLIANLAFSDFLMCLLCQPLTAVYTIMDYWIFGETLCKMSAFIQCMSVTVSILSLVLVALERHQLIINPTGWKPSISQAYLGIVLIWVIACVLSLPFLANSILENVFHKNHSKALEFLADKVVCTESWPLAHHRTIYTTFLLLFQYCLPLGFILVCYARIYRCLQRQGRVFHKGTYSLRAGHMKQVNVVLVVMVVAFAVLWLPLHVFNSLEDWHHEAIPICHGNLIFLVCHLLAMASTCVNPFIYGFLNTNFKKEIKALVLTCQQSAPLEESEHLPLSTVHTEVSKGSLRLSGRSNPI

B1: 4058071 (protein)
chain: CAPLEPTYPGDNATPEQMARYAAALRRYINKLTRPRYCAPLEPTYPGDNATPEQMARYAAALRRYINKLTRPRY
Consider B1, for which, in experiment [1], the half-inhibitory concentration (IC50) came out at 0.143 nM.

B2: 4058688 (peptide)
chain: APLEPKYPGDNATPEELAKYAAELRRYINKLTRPRY
B2: the concentration for half-maximal inhibition (IC50) in experiment [2] was 0.089 nM. This lies in the picomolar range.

B3: 4057751 (peptide)
chain: APLEPHYPGDNATPEQLAKYAADLRRYINKLTRPRY
With B3, the IC50 in experiment [3] came out at 0.065 nM.

B4: 4058147 (peptide)
chain: APLEPSYPGDNATPEQMAKYAAELRRYINKLTRPRY
Consider B4, for which the IC50 in experiment [1] stood at 0.057 nM.

B5: 4058070 (peptide)
chain: PAPLEPTYPGDNATPEQMARYAAALRRYINKLTRPRY
Consider B5, for which, in experiment [1], the half-maximal inhibitory concentration (IC50) worked out at 0.03 nM.

B6: 4058069 (peptide)
chain: HAPLEPTYPGDNATPEQMARYAAALRRYINKLTRPRY
As to B6, in experiment [1], the IC50 worked out at 0.07 nM.

B7: 4058679 (peptide)
chain: PLEPEYPGDDATPQEMARYAAELRRYINKLTRPRY
With B7, the IC50 in experiment [2] turned out to be 0.078 nM. That is a picomolar value.

B8: 4058673 (peptide)
chain: PLEPEYPGDDATPEEMAKYAAELRRYINKLTRPRY
B8 returned a 50% inhibitory concentration (IC50) in experiment [2] of 0.091 nM.

B9: 4058072 (peptide)
chain: PLEPEYPGDNATPEEMAKYAAELRRYINKLTRPRY
B9: the IC50 in experiment [1] amounted to 0.051 nM.

B10: 4058686 (peptide)
chain: PAPLEPKYPGDDATPQEMARYAAELRRYINKLTRPRY
In experiment [2], B10 showed a 50% inhibitory concentration (IC50) of 0.076 nM.

B11: 4058055 (peptide)
chain: YAPLEPHYPGDDATPQQMARYAAELRRYINLLTRPRY
B11 had an IC50 in experiment [3] of 0.11 nM.

B12: 4058079 (peptide)
chain: PAPLEPHYPGDNATPEEMAKYAAELRRYINKLTRPRY
Turning to B12, the concentration for half-maximal inhibition (IC50) in experiment [1] turned out to be 0.071 nM.

B13: 4058077 (peptide)
chain: PAPLEPEYPGDNATPEEMAKYAAELRRYINKLTRPRY
Molecule B13 gave an IC50 in experiment [1] of 0.059 nM. This IC50 and that of the molecule before are within 1.5-fold of each other.

B14: 4057788 (peptide)
chain: AAPLEPHYPGDDATPQQMAHYYSELRRYINKLTRPRY
Turning to B14, the half-maximal inhibitory concentration (IC50) in experiment [3] is 0.155 nM.

B15: 4058082 (peptide)
chain: AAPLEPSYPGDDATPQQMAHYYSELRRYINLLTRPRY
As for B15, the IC50 in experiment [1] was determined as 0.11 nM. That is a sub-nanomolar value.

B16: 4058152 (peptide)
chain: PLEPSYPGDNATPEQMAKYAAELRRYINLLTRPRY
B16 came in with an IC50 in experiment [1] of 0.088 nM.

B17: 4058154 (peptide)
chain: PLEPEYPGDNATPEQMAKYAAELRRYINLLTRPRY
For the molecule B17, the 50% inhibitory concentration (IC50) in experiment [1] was found to be 0.105 nM.

B18: 4058067 (peptide)
chain: PLEPTYPGDNATPEQMARYAAALRRYINKLTRPRY
Turning to B18, in experiment [1], the concentration for half-maximal inhibition (IC50) turned out to be 0.047 nM.

B19: 4058165 (peptide)
chain: PLEPKYPGDNATPEQLAKYAAELRRYINKLTRPRY
Consider B19, for which the IC50 in experiment [1] turned out to be 0.063 nM. The IC50 values of the last two molecules are within 1.5-fold of each other.

B20: 4058158 (peptide)
chain: PLEPKYPGDNATPEQMAKYAAELRRYINKLTRPRY
B20 showed a half-maximal inhibitory concentration (IC50) in experiment [1] of 0.047 nM.

B21: 4058146 (peptide)
chain: PLEPSYPGDNATPEQMAKYAAELRRYINKLTRPRY
In experiment [1], B21 yielded a concentration for half-maximal inhibition (IC50) of 0.046 nM.

B22: 4058296 (peptide)
chain: PLEPVYPGDNATPEQLARYYSELRRYINKLTRPRY
Regarding B22, in experiment [1], the IC50 came out at 0.053 nM.

B23: 4058297 (peptide)
chain: PAPLEPVYPGDNATPEQLARYYSELRRYINKLTRPRY
As for B23, in experiment [1], the IC50 amounted to 0.043 nM.

B24: 4058295 (peptide)
chain: AAPLEPVYPGDNATPEEMARYYSELRRYINKLTRPRY
In experiment [1], B24 showed a 50% inhibitory concentration (IC50) of 0.059 nM.

B25: 4057777 (peptide)
chain: AAPLEPSYPGDNATPEQMAHYYSELRRYINKLTRPRY
B25 gave a half-maximal inhibitory concentration (IC50) in experiment [3] of 0.088 nM.

B26: compound of SEQ ID NO:702 (code 4058286) (peptide)
peptide: PAPLEAVYPGDNATPEQMARYYSELRRYINKLTRPRY
modifications: ends and bridges not checked
Molecule B26 gave a 50% inhibitory concentration (IC50) in experiment [1] of 0.093 nM.

B27: 4058285 (peptide)
chain: PAPLEIVYPGDNATPEQMARYYSELRRYINKLTRPRY
B27: the 50% inhibitory concentration (IC50) in experiment [1] was 0.21 nM.

B28: 4058280 (peptide)
chain: AAPLEPVYPGDNATPEQMARYYSELRRYINKLTRPRY
In experiment [1], B28 displayed an IC50 of 0.042 nM. Against the preceding molecule, the IC50 is about 5-fold lower.

B29: 4057785 (peptide)
chain: PAPLEPTYPGDNATPEQLAHYYSELRRYINKLTRPRY
In experiment [3], B29 displayed an IC50 of 0.134 nM.

B30: 4058166 (peptide)
chain: AAPLEPKYPGDNATPEQLAKYAAELRRYINKLTRPRY
Regarding B30, the IC50 in experiment [1] turned out to be 0.056 nM.

B31: 4058076 (peptide)
chain: AAPLEPEYPGDNATPEEMAKYAAELRRYINKLTRPRY
B31: in experiment [1], the half-maximal inhibitory concentration (IC50) is 0.048 nM.

B32: 4058160 (peptide)
chain: GAPLEPKYPGDNATPEQMAKYAAELRRYINKLTRPRY
Molecule B32 returned an IC50 in experiment [1] of 0.052 nM.

B33: 4058151 (peptide)
chain: YAPLEPSYPGDNATPEQMAKYAAELRRYINKLTRPRY
For B33, in experiment [1], the IC50 worked out at 0.058 nM.

B34: 4057756 (peptide)
chain: PAPLEPHYPGDNATPEQMAKYAAALRRYINKLTRPRY
On to B34, for which, in experiment [3], the IC50 came to 0.124 nM.

B35: 4058167 (peptide)
chain: GAPLEPKYPGDNATPEQLAKYAAELRRYINKLTRPRY
Turning to B35, the IC50 in experiment [1] was found to be 0.06 nM.

B36: 4058149 (peptide)
chain: GAPLEPSYPGDNATPEQMAKYAAELRRYINKLTRPRY
B36 displayed an IC50 in experiment [1] of 0.07 nM.

B37: 4057903 (peptide)
chain: GAPLEPHYPGDNATPEQMARYAAELRRYINKLTRPRY
Turning to B37, the IC50 in experiment [3] amounted to 0.09 nM.

B38: 4058075 (peptide)
chain: YAPLEPEYPGDNATPEEMAKYAAELRRYINKLTRPRY
For the molecule B38, the concentration for half-maximal inhibition (IC50) in experiment [1] is 0.058 nM.

B39: 4058168 (peptide)
chain: PAPLEPKYPGDNATPEQLAKYAAELRRYINKLTRPRY
Regarding B39, the IC50 in experiment [1] came out at 0.048 nM. The IC50 values of the last two molecules are within 1.5-fold of each other.

B40: 4058159 (peptide)
chain: AAPLEPKYPGDNATPEQMAKYAAELRRYINKLTRPRY
Molecule B40 returned an IC50 in experiment [1] of 0.106 nM. This IC50 is about 2.2-fold higher than that of the molecule before.

B41: 4058073 (peptide)
chain: GAPLEPEYPGDNATPEEMAKYAAELRRYINKLTRPRY
The molecule B41 gave a half-inhibitory concentration (IC50) in experiment [1] of 0.131 nM.

B42: 4058298 (peptide)
chain: AAPLEPVYPGDNATPEQLARYYSELRRYINKLTRPRY
In turn, B42 gave an IC50 in experiment [1] of 0.072 nM.

B43: 4058153 (peptide)
chain: PAPLEPSYPGDNATPEQMAKYAAELRRYINLLTRPRY
In the case of B43, in experiment [1], the IC50 turned out to be 0.107 nM.

B44: 4058150 (peptide)
chain: HAPLEPSYPGDNATPEQMAKYAAELRRYINKLTRPRY
In turn, B44 displayed an IC50 in experiment [1] of 0.113 nM. The IC50 values of the last two molecules are within 1.5-fold of each other.

B45: 4058148 (peptide)
chain: AAPLEPSYPGDNATPEQMAKYAAELRRYINKLTRPRY
B45 returned an IC50 in experiment [1] of 0.051 nM.

B46: 4058697 (peptide)
chain: AAPLEPHYPGDNATPEEMAKYAAELRRYINKLTRPRY
For B46, the IC50 in experiment [2] came to 0.095 nM.

B47: 4057766 (peptide)
chain: PAPLEPHYPGDNATPEQMAKYAAELRRYINKLTRPRY
As for B47, the IC50 in experiment [3] is 0.089 nM. This counts as picomolar.

B48: 4058169 (peptide)
chain: PAPLEPKYPGDNATPEQMAKYAAELRRYINLLTRPRY
In experiment [1], B48 came in with an IC50 of 0.099 nM.

B49: 4058078 (peptide)
chain: PAPLEPEYPGDNATPEELAKYAAELRRYINKLTRPRY
Take B49: the IC50 in experiment [1] stood at 0.072 nM.

B50: 4058163 (peptide)
chain: HAPLEPKYPGDNATPEQMAKYAAELRRYINKLTRPRY
For B50, the IC50 in experiment [1] was determined as 0.087 nM.

B51: 4058164 (peptide)
chain: YAPLEPKYPGDNATPEQMAKYAAELRRYINKLTRPRY
Consider B51, for which the half-maximal inhibitory concentration (IC50) in experiment [1] was 0.058 nM.

B52: 4058068 (peptide)
chain: AAPLEPTYPGDNATPEQMARYAAALRRYINKLTRPRY
As for B52, in experiment [1], the half-inhibitory concentration (IC50) came to 0.026 nM.

B53: 4058074 (peptide)
chain: HAPLEPEYPGDNATPEEMAKYAAELRRYINKLTRPRY
Molecule B53 displayed an IC50 in experiment [1] of 0.116 nM.

B54: 4058155 (peptide)
chain: PAPLEPEYPGDNATPEQMAKYAAELRRYINLLTRPRY
B54 yielded a 50% inhibitory concentration (IC50) in experiment [1] of 0.125 nM.

(Values after patent publication US20100279930A1 (published 2010).)
